The results in this text go back to patent US20050032064, “Method and device for identifying substances capable of modulating adipocyte differentiation” (published 2005).

One data set addresses PPAR GAMMA (Mus musculus, UniProt P37238 P37238:1-505). Description: EMSA; PPAR gamma alone. The note with it: tags: pSG5-mPPAR-gamma, rabbit reticulocyte lysate; label: end-labeled. On the procedure: (§1) The electrophoretic gel shift studies were carried out by using the indicated end-labeled oligonucleotides, in the presence of the murine PPAR GAMMA receptor, murine RXR ALPHA receptor, human REV-ERB ALPHA receptor produced by reticulocyte lysate, or non-programmed lysates (lysate). Binding competition experiments were performed by adding a 0, 10 or 100-fold excess of unlabeled Rev-DR2 oligonucleotide.
(§2) The pSG5-mPPAR-gamma, pSG5-mRXR-alpha and pSG5-hRev-erb alpha plasmids were transcribed in vitro with T7 polymerase and translated with the rabbit reticulocyte lysate system (Promega, Madison, Wis., USA). Gel shift experiments with REV-ERB ALPHA, PPAR GAMMA and/or RXR ALPHA proteins were carried out as previously described (Gervois, P. et al., Molecular Endocrinology 1999, 13(3): 400-409; Vu-Dac, N. et al., J. Biol. Chem. 1994, 269(49): 31012-31018). For the competition experiments, increasing quantities of the indicated unlabeled probe were added immediately before adding the labeled oligonucleotide. The complexes were resolved in 5% polyacrylamide gels using […] buffer (90 mM borate, 2.5 mM EDTA, pH 8.3) at room temperature. Gels were dried and exposed overnight at −70° C. on Rayon-X film (XOMAT-AR, Eastman Kodak, Rochester, N.Y., USA).
(§3) Lastly, binding of the PPAR GAMMA receptor to the Rev-DR2 site was studied. […]
In general terms: In EMSA bound probe runs differently from free probe, usually more slowly.

The next data set addresses T1, RXR ALPHA (Mus musculus, UniProt P28700 P28700:1-467).
T1 sequence: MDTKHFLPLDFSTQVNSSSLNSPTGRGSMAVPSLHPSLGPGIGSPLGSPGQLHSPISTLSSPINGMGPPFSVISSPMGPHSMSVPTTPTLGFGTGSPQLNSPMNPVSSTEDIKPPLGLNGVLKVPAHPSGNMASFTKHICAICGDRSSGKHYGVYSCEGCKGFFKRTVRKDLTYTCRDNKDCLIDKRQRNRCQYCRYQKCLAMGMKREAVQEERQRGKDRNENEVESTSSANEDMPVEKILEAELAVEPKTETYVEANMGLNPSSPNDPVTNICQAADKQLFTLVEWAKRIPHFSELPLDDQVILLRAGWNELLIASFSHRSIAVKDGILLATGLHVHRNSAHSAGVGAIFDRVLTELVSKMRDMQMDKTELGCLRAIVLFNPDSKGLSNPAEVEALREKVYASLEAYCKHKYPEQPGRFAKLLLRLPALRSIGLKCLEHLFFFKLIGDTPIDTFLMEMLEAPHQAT
The experiment in a line: EMSA; RXR alpha alone. The note with it: tags: pSG5-mRXR-alpha, rabbit reticulocyte lysate; label: end-labeled. On the procedure: as §1, §2, §3

For a further data set, the target named is T2, REV-ERB ALPHA (NR1D1) (Homo sapiens, UniProt P20393 SEQ:1-614).
T2 sequence: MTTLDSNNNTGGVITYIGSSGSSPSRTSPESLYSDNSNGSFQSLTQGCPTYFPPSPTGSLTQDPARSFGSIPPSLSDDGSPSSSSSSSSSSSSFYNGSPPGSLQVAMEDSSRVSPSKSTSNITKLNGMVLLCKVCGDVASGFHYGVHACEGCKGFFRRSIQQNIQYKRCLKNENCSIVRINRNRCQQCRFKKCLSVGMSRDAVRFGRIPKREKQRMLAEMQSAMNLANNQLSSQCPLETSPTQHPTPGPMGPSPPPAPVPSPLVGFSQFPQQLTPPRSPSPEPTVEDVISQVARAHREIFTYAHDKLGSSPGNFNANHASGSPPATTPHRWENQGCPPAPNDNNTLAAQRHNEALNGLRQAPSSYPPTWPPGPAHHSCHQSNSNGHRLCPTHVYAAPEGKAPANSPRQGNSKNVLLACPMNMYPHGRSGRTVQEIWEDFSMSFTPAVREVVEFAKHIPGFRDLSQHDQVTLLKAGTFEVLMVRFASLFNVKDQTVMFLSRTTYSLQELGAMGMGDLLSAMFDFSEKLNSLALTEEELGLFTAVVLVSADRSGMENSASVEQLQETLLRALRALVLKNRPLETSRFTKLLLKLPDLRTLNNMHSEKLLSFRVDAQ
Description: EMSA; binds as monomer and homodimer. The note with it: tags: expressed from pSG5-hRev-erb alpha, rabbit reticulocyte lysate; label: end-labeled. On the procedure:
as §1, §2, §3

For data set [1], the target named is PPAR GAMMA / RXR ALPHA heterodimer (Mus musculus, UniProt P37238;P28700 P37238:1-505,P28700:1-467). Description: EMSA; competed by excess (10 or 100-fold tested) unlabeled Rev-DR2. The note with it: tags: pSG5-mPPAR-gamma and pSG5-mRXR-alpha, rabbit reticulocyte lysate; label: end-labeled. On the procedure:
Binding competition experiments were performed by adding a 0, 10 or 100-fold excess of unlabeled Rev-DR2 oligonucleotide.
as §2
Lastly, binding of the PPAR GAMMA receptor to the Rev-DR2 site was studied. A test to measure electrophoretic mobility (gel shift or electrophoretic mobility shift assay) was carried out using PPAR GAMMA and RXR ALPHA proteins synthesized in vitro. […]

B1: Rev-DR2 (dsDNA)
DNA 1: AAAAGTGTGTCACTGGGGCA
DNA 2: TGCCCCAGTGACACACTTTT
As to B1, the binding result with PPAR GAMMA was “no binding”; with RXR ALPHA it was “no binding”; in the data set with REV-ERB ALPHA (NR1D1) it was “binds”; in data set [1], “binds”.
